Test results reported in patent US20260167721A1 (ABLEXIS, published 2026).
Where a chain is given by its changes, count along the chain named.

B1: CD3 × CD33-BspAb98 (bispecific antibody)
scFv-Fc: NFMLTQPHSVSESPGKTVTISCTRSSGSIASNYVQWYQQRPGSSPTTVIYEDNQRPSGVPDRFSGSIDSSSNSASLTISGLKTEDEADYYCQSYDSSNRVFGCGTKLTVLGGGGSGGGGSGGGGSGGGGSEVHLVESGGGLVKPGGSLRLSCAASGFTFSRYSMNWVRQAPGKCLEWVSSISRSSSYIYYADSVKGRFTISRDNAKNSLYLQMNSLRAEDTAVYYCAREPRTLGMDYWGQGILVTVSSGGGGSDKTHTCPPCPAPEFEGGPSVFLFPPKPKDTLMISRTPEVTCVVVDVSHEDPEVKFNWYVDGVEVHNAKTKPREEQYNSTYRVVSVLTVLHQDWLNGKEYKCKVSNKALPASIEKTISKAKGQPREPQVYTLPPCREEMTKNQVSLWCLVKGFYPSDIAVEWESNGQPENNYKTTPPVLDSDGSFFLYSKLTVDKSRWQQGNVFSCSVMHEALHNHYTQKSLSLSPGK
heavy: EVQLVQSGAEVKKPGSSVKVSCKASGYTITDSNIHWVRQAPGQSLEWIGYIYPYNGGTDYNQKFKNRATLTVDNPTNTAYMELSSLRSEDTAFYYCVNGNPWLAYWGQGTLVTVSSASTKGPSVFPLAPSSKSTSGGTAALGCLVKDYFPEPVTVSWNSGALTSGVHTFPAVLQSSGLYSLSSVVTVPSSSLGTQTYICNVNHKPSNTKVDKRVEPKSCDKTHTCPPCPAPEFEGGPSVFLFPPKPKDTLMISRTPEVTCVVVDVSHEDPEVKFNWYVDGVEVHNAKTKPREEQYNSTYRVVSVLTVLHQDWLNGKEYKCKVSNKALPASIEKTISKAKGQPREPQVCTLPPSREEMTKNQVSLSCAVKGFYPSDIAVEWESNGQPENNYKTTPPVLDSDGSFFLVSKLTVDKSRWQQGNVFSCSVMHEALHNRFTQKSLSLSPGK
light: DIQLTQSPSTLSASVGDRVTITCRASESLDNYGIRFLTWFQQKPGKAPKLLMYAASNQGSGVPSRFSGSGSGTEFTLTISSLQPDDFATYYCQQTKEVPWSFGQGTKVEVKRTVAAPSVFIFPPSDEQLKSGTASVVCLLNNFYPREAKVQWKVDNALQSGNSQESVTEQDSKDSTYSLSSTLTLSKADYEKHKVYACEVTHQGLSSPVTKSFNRGEC
notes: KiH heterodimer
B2: CD3 × CD33-BspAb99 (bispecific antibody)
scFv-Fc: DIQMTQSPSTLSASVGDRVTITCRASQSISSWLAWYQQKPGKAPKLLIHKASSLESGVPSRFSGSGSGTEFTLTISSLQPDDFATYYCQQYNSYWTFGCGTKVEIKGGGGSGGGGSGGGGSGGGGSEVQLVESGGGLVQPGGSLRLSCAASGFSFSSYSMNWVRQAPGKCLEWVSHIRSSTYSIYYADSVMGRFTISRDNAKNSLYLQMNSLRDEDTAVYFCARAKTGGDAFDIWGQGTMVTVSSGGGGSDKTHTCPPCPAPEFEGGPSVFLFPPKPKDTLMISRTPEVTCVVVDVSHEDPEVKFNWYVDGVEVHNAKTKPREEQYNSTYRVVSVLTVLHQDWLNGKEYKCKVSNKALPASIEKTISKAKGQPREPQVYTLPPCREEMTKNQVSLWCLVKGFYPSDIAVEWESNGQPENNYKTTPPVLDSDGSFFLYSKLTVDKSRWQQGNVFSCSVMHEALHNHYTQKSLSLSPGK
heavy: B1 heavy
light: B1 light
notes: KiH heterodimer
B3: CD3 × CD33-BspAb101 (bispecific antibody)
scFv-Fc: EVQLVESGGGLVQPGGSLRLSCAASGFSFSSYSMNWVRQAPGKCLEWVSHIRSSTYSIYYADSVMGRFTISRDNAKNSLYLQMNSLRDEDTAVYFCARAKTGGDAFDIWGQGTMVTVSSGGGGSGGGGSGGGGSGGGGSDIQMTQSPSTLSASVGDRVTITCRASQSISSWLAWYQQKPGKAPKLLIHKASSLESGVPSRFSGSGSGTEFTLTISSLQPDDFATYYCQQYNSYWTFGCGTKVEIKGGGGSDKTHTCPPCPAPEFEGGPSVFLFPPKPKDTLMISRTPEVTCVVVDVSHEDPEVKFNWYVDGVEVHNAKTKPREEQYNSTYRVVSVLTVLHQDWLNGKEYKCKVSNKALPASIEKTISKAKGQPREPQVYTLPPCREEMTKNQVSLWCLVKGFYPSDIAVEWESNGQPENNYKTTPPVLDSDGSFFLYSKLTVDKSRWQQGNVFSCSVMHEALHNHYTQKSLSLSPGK
heavy: B1 heavy
light: B1 light
notes: KiH heterodimer
B4: CD3 × CD33-BspAb100 (bispecific antibody)
scFv-Fc: EVQLVESGGGLVKPGGSLRLSCAASGFTFSNYYMNWVRQAPGKCLERVSSISSSSNYIYYADSVKGRFTISRDNAKNSLYLQMNSLRAEDTAVYYCARDRRELPLDYWGQGTVVTVSSGGGGSGGGGSGGGGSGGGGSSYELTQPPSVSVSPGQTARITCSGDALPKKYAYWYQQKSGQAPVLVIYEDSKRPSGIPERFSGSSSGTMATLTISGAQVEDEADYYCYSTDSSGNHWVFGCGTKLTVLGGGGSDKTHTCPPCPAPEFEGGPSVFLFPPKPKDTLMISRTPEVTCVVVDVSHEDPEVKFNWYVDGVEVHNAKTKPREEQYNSTYRVVSVLTVLHQDWLNGKEYKCKVSNKALPASIEKTISKAKGQPREPQVYTLPPCREEMTKNQVSLWCLVKGFYPSDIAVEWESNGQPENNYKTTPPVLDSDGSFFLYSKLTVDKSRWQQGNVFSCSVMHEALHNHYTQKSLSLSPGK
heavy: B1 heavy
light: B1 light
notes: KiH heterodimer
B5: CD3 × CD33-BspAb113 (bispecific antibody)
scFv-Fc: NFMLTQPHSVSESPGKTVTISCTRSSGSIASNYVQWYQQRPGSSPTTVIYEDNQRPSGVPDRFSGSIDSSSNSASLTISGLKTEDEADYYCQSYDSSNRVFGCGTKLTVLGGGGSGGGGSGGGGSGGGGSEVQLVESGGGLVKFGGSLRLSCAASGFTFSRYSMNWVRQAPGKCLEWVSSISSSSSYKYYADSVKGRFTISRDNAKNSLYLQMNSLRAEDTAVYYCAREGGNSHGMDVWGQGTTVTVSSGGGGSDKTHTCPPCPAPEFEGGPSVFLFPPKPKDTLMISRTPEVTCVVVDVSHEDPEVKFNWYVDGVEVHNAKTKPREEQYNSTYRVVSVLTVLHQDWLNGKEYKCKVSNKALPASIEKTISKAKGQPREPQVYTLPPCREEMTKNQVSLWCLVKGFYPSDIAVEWESNGQPENNYKTTPPVLDSDGSFFLYSKLTVDKSRWQQGNVFSCSVMHEALHNHYTQKSLSLSPGK
heavy: B1 heavy
light: B1 light
notes: KiH heterodimer
B6: CD3 × CD33-BspAb104 (bispecific antibody)
scFv-Fc: QSALTQPASVSGSPGQSITISCTGTSSDVGSYNLVSWYQQHPGKAPKLMIYEDIRRPSGVSNRFSASKSGDTASLTISGLQAEDEADYYCSSYAGSTTFAIFGCGTKLTVLGGGGSGGGGSGGGGSGGGGSEVQLVQSGAEVKKPGESLKISCKGSEYSFTTYWIAWVRQMPGKCLEWMGIIYPGDSDTTYSPSFQGQVTISADKSISIAFLQWSSLKASDTAMYYCARQGELDAFDIWGQGTMVTVSSGGGGSDKTHTCPPCPAPEFEGGPSVFLFPPKPKDTLMISRTPEVTCVVVDVSHEDPEVKFNWYVDGVEVHNAKTKPREEQYNSTYRVVSVLTVLHQDWLNGKEYKCKVSNKALPASIEKTISKAKGQPREPQVYTLPPCREEMTKNQVSLWCLVKGFYPSDIAVEWESNGQPENNYKTTPPVLDSDGSFFLYSKLTVDKSRWQQGNVFSCSVMHEALHNHYTQKSLSLSPGK
heavy: B1 heavy
light: B1 light
notes: KiH heterodimer
B7: CD3 × CD33-BspAb119 (bispecific antibody)
scFv-Fc: B5 scFv-Fc with L134V, V135A, F144P, S185G, K188T, A227V, G230R, N232K, S233G, H234A
heavy: B1 heavy
light: B1 light
notes: KiH heterodimer

The binders below were run against T1, human CD3 (TCR/CD3 complex on the cell surface) (human, UniProt P07766 23-207; P04234 22-171; P09693 23-182) (assay: flow cytometry, Pan-T cells, 1 ug/mL).
T1 construct: whole, on cells; Native CD3 on human Pan-T cells or Jurkat wild-type cells; also called CD3 on Pan-T cells; CD3 on Jurkat WT cells
T1 sequence (P07766 23-207, chain 1 of 3): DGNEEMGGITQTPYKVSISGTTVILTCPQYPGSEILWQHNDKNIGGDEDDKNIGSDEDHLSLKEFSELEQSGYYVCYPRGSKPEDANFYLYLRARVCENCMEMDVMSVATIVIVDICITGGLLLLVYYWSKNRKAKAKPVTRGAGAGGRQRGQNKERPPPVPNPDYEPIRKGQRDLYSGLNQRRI
T1 sequence (P04234 22-171, chain 2 of 3): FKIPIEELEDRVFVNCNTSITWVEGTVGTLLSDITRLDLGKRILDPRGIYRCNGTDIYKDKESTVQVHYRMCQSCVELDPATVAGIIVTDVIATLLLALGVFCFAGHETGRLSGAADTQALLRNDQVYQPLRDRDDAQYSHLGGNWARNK
T1 sequence (P09693 23-182, chain 3 of 3): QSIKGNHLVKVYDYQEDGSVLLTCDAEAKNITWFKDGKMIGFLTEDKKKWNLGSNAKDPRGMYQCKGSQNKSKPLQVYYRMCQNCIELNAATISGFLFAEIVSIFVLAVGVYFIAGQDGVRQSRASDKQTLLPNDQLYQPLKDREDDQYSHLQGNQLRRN

Row | % Positive [%] | gMFI [gMFI] | Binder
1 | 99.8 | 197000 | B1
2 | 1.2 | 1810 | B2
3 | 1.8 | 1910 | B3
4 | 99.5 | 240000 | B4
5 | 96.2 | 24900 | B5
6 | 1.2 | 2020 | B6
7 | 99.8 | 88200 | B7

Each binder was assayed against T1, human CD3 (TCR/CD3 complex on the cell …) (assay: flow cytometry, Jurkat WT gMFI over Jurkat KO gMFI, 1 ug/mL).

Row | Jurkat WT/KO (Fold) [fold] | Binder
8 | 11.2 | B1
9 | 0.9 | B2
10 | 0.8 | B3
11 | 9.3 | B4
12 | 3.9 | B5
13 | 0.8 | B6
14 | 7.8 | B7

These binders were tested against T1, human CD3 (TCR/CD3 complex on the cell …) (assay: flow cytometry, Jurkat WT cells, 1 ug/mL).

Row | gMFI [gMFI] | Binder
15 | 43500 | B1
16 | 1660 | B2
17 | 1780 | B3
18 | 30000 | B4
19 | 10100 | B5
20 | 1700 | B6
21 | 22400 | B7

What follows are binders tested against T1, human CD3 (TCR/CD3 complex on the cell …) (assay: flow cytometry, Jurkat WT cells, 10 ug/mL).

Row | gMFI [gMFI] | Binder
22 | 47700 | B1
23 | 1670 | B2
24 | 1940 | B3
25 | 39600 | B4
26 | 16000 | B5
27 | 1790 | B6
28 | 25700 | B7

What follows are binders tested against T1, human CD3 (TCR/CD3 complex on the cell …) (assay: flow cytometry, Pan-T cells, 10 ug/mL).

Row | % Positive [%] | gMFI [gMFI] | Binder
29 | 99.6 | 278000 | B1
30 | 1.5 | 1830 | B2
31 | 1.6 | 2150 | B3
32 | 99.5 | 348000 | B4
33 | 99.5 | 111000 | B5
34 | 1.6 | 2090 | B6
35 | 99.7 | 166000 | B7

The binders below were run against T1, human CD3 (TCR/CD3 complex on the cell …) (assay: flow cytometry, Jurkat WT gMFI over Jurkat KO gMFI, 10 ug/mL).

Row | Jurkat WT/KO (Fold) [fold] | Binder
36 | 12.7 | B1
37 | 1 | B2
38 | 0.9 | B3
39 | 11.9 | B4
40 | 5.9 | B5
41 | 1 | B6
42 | 9 | B7
